# In article PMC11199421:
# Biological target: Phospholipase A1 (PlaA1) from Serratia marcescens, purified (Serratia marcescens)
# Assay: SPR; Biacore T200; PlaA1 as ligand (diluted to 20 µg/mL), ∆N27 PlaS as analyte at 0, 0.156, 0.3125, 0.625, 1.25, 2.5 and 5 µM
substance,measurement,value
"N-terminal truncated PlaS (∆N27 PlaS) from Serratia marcescens, purified (domain or fragment)",Kd,8.49 nM
same,koff,1.26e-05 s⁻¹
same,kon,1480 M⁻¹ s⁻¹
